Laboratory results as given in publication PMC10042821, “Cryo-EM structure of human eIF5A-DHS complex reveals the molecular basis of hypusination-associated neurodegenerative disorders” (Nature Communications, 2023).
Positions count from the first letter of the chain named.

Key:
Assay in all cases: MST; His-tagged DHS variants labelled with RED-tris-NTA 2nd Generation, 8.32 nM; eIF5A titrated, sixteen dilutions 0.00175–57.5 μM; 50 mM Tris, 200 mM NaCl, 5 mM β-ME pH 8; Monolith NT.115, 40% excitation power, 60% MST power; no NAD or SPD
Conditions in all cases: both partners purified
[1] = target: T1, deoxyhypusine synthase N173A, His-tagged (human, UniProt P49366 1-369, N173A, RED-tris-NTA 2nd Generation dye on the His tag)
T1 construct: human deoxyhypusine synthase, Uniprot P49366, residues 1-369, site-directed mutant of the pET24d full-length construct; also called DHS N173A; source: E. coli, purified; not shown: 6xHis, N-terminal, kept
T1 sequence (looked up): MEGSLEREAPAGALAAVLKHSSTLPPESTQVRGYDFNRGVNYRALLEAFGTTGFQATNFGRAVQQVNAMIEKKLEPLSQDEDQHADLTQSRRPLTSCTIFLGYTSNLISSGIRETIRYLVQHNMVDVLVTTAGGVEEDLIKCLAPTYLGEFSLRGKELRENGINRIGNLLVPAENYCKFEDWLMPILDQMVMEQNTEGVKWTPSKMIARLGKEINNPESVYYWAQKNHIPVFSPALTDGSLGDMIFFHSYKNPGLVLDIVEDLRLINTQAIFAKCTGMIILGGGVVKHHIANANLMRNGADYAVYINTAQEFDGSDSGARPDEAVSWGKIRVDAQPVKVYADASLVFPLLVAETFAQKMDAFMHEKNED

[2] = target: T2, deoxyhypusine synthase F272A, His-tagged (human, UniProt P49366 1-369, F272A, RED-tris-NTA 2nd Generation dye on the His tag)
T2 construct: human deoxyhypusine synthase, Uniprot P49366, residues 1-369, site-directed mutant of the pET24d full-length construct; also called DHS F272A; source: E. coli, purified; not shown: 6xHis, N-terminal, kept
T2 sequence (looked up): T1 sequence (looked up) with A173N, F272A

[3] = target: T3, deoxyhypusine synthase M244A, His-tagged (human, UniProt P49366 1-369, M244A, RED-tris-NTA 2nd Generation dye on the His tag)
T3 construct: human deoxyhypusine synthase, Uniprot P49366, residues 1-369, site-directed mutant of the pET24d full-length construct; also called DHS M244A; source: E. coli, purified; not shown: 6xHis, N-terminal, kept
T3 sequence (looked up): T1 sequence (looked up) with A173N, M244A

[4] = target: T4, deoxyhypusine synthase L295A, His-tagged (human, UniProt P49366 1-369, L295A, RED-tris-NTA 2nd Generation dye on the His tag)
T4 construct: human deoxyhypusine synthase, Uniprot P49366, residues 1-369, site-directed mutant of the pET24d full-length construct; also called DHS L295A; source: E. coli, purified; not shown: 6xHis, N-terminal, kept
T4 sequence (looked up): T1 sequence (looked up) with A173N, L295A

Kd [1]: > 5000 nM
Kd [2]: 504 ± 154 nM
Kd [3]: > 5000 nM
Kd [4]: 393 ± 107 nM
B1: eukaryotic translation factor 5A (eIF5A-1), residues 15-151 (domain or fragment)
chain: not shown
notes: human eIF5A1, residues 15-151, from pET28-MHL (Addgene); The purification protocol removes the tag with TEV; source: E. coli, purified (HisTrap, TEV cleavage, reverse HisTrap, SEC); not shown: His tag, N-terminal, cleaved
